Laboratory results reported in paper PMC4976285.

Molecular target: HLA-A*0201 molecules on the surface of T2 cells (human (endogenous in T2) | human)
Assay: flow cytometry on cells

Substance “HTNV nucleoprotein peptide FA9 (aa129–aa137, …)” has a fluorescent index (FI) of 2.77.
